Measurements taken from patent publication US20220096654A1, “PYRROLOBENZODIAZEPINE-ANTIBODY CONJUGATES AND USES THEREOF” (ADC THERAPEUTICS SA, priority 2020, published 2022).

Tests used:
human CD45+ OCIM1 cells = test: Complement dependent cytotoxicity (51Cr release) assay; assay type: cell-based; conditions: 10 ug/ml antibody, 10% baby rabbit serum
Protocol: 1×10^6 human CD45+ OCIM1 cells in 100 uL of complete medium (RPMI 1640 plus 10% fetal calf serum) were radiolabelled with 100 μCi ^51Cr sodium chromate for 1 h at 37° C. followed by three washes with complete medium. Labelled cells were incubated at 5×10^4/mL in triplicate wells of a 96 well plate in presence of YTH24.5 alone, YTH54.12 alone or with both antibodies for 10 mins at room temperature before of addition of baby rabbit serum at a final concentration of 10%. A final concentration of 5% Triton X-100 was added to control wells of cells to determined maximum lysis. 50 uL of supernatant from each well was transferred into a white-walled plates containing 150 uL scintillation liquid in each well. Plates were read in a MicroBeta counter (Trilux) after overnight incubation. The percentage of specific lysis was calculated using the standard formula [(experimental−spontaneous release)/(maximum load-spontaneous release)×100] and expressed as the mean of triplicate samples.

CD34+ PBSC (CD45+) = test: Clonogenic assay, CD34+ PBSC treated 2 h with Mab or ADC; assay type: cell-based, human
Protocol: Cryopreserved purified CD34+ cells from mobilized peripheral blood from three normal donors were thawed and cultured at […] complete medium (RPMI 1640 plus 10% fetal calf serum) in presence of Mab, ADC or medium alone for 2 hours in 96-well U-bottom plates. Cells were mixed and 40 uL was transferred to 2 ml of StemMACS HSC-CFU complete with Epo (Miltenyi Biotech) and mixed well. 0.5 ml (250 cells) was plated into triplicate into wells of a 24-well plate. Colonies were enumerated between 10-14 days. Data is mean of three donors±s.d.

human CD34+ cells = test: Ex vivo treatment of CD34+ cells with Mab or ADC prior to engraftment in NSG mice; conditions: CD34+ cells treated at 1 nM and 0.1 nM for 4 hours before transplantation; week 8
Protocol: Adult female NSG mice were sublethally irradiated with 2.5 Gy on the day before transplantation. Cryopreserved purified CD34+ cells from mobilized peripheral blood from a normal donor were thawed and cultured in complete medium (RPMI 1640 plus 10% fetal calf serum) in presence of Mab, ADC or medium alone for 4 hours. Cells were washed in phosphate buffered saline (PBS) and 0.5×10^6 cells in PBS were injected intravenously into the tail vein of mice. Engraftment of transplanted human cells (hCD45+) in the bone marrow of mice was determined by flow cytometry at 8 weeks after transplantation.

[1] = Dosimetry in non-humanised NSG mice; assay type: in vivo; conditions: for Comment (survival / culling): non-humanised NSG mice, monitored 2 weeks; for mice culled due to weight loss: human (hIgG1-AAA) format, ≥3 mg/kg, humanised and non-humanised mice
Protocol: For dosimetry in non-humanised NSG mice, adult NSG mice were injected intravenously via the tail vein with unconjugated Mab or ADC up to 5 mg/kg. Mice regularly monitored over a period of 2 weeks for any signs of morbidity. Mice were culled if rapid weight loss (>15%) occurred over a period of 2 days.

human CD45+ cells = test: Depletion of human CD45+ cells in humanised NSG mice; assay type: in vivo; conditions: for course of the levels of human CD45+ cells in blood: 1 mg/kg, two week period
Protocol: Adult female NSG mice were sublethally irradiated with 2.5 Gy on the day before transplantation (day −57). Cryopreserved purified CD34+ cells from mobilized peripheral blood from a normal donor were thawed and 0.5×10^6 cells in PBS were injected intravenously into the tail vein of mice (day −56). Human engraftment (human CD45+ cells) in the blood of mice was assessed at day −14 and day −1. Mice were assigned to treatment cohorts so that the median human CD45+ engraftment in the blood between the cohorts was as similar as possible. Mice were injected with 0.3 mg/kg or 1 mg/kg Mab or ADC intravenously via the tail vein. Blood samples were taken after 7 days and analysed by flow cytometry. The bone marrow, blood and spleen of mice were analysed at two weeks post-treatment.

[2] = tested on: luciferase expressing human CD45+ Jurkat cells; test: Jurkat leukaemia model in NSG mice (bioluminescence, survival); assay type: in vivo; conditions: 1 mg/kg, day 16
Protocol: Adult NSG mice were sublethally irradiated with 2 Gy on the day before injection of cells. 5×10^6 fire fly luciferase expressing Jurkat cells in PBS were injected intravenously into the tail vein of mice. On the following day PBS, MAbs or ADC were injected intravenously into the tail vein at a dose of 1 mg/kg. Mice were regularly monitored for signs of morbidity and weight loss for the duration of the experiment. For imaging, mice were injected intraperitoneally with 3 mg D-luciferin in PBS. Mice were initially anesthetized with 4% isoflurane and then maintained at 2% isoflurane. Ten minutes after injection of D-luciferin, mice were imaged inside a IVIS Lumina III (PerkinElmer). A sub-saturating image was captured using the auto-exposure setting in the Living Image software.

target cells = test: Live-imaging microscopy of antibody internalisation; assay type: cell-based; conditions: live-imaging microscopy (data not shown)
Source text: In particular, the lysosomal pathway can be important in providing an environment for cleavage of the antibody-drug linkers, hereby releasing the drug in the target cells for highly specific cell killing.

293T (CD45-) = test: Cell viability assay 72 h (PrestoBlue), 293T; assay type: cell-based, human; conditions: drug-linker B1
Protocol: OCIM1, Jurkat and Nalm6 cells were seeded at 0.5×10^5/mL were cultured for 72 hours in presence of Mab or ADC or medium (in triplicate wells) in wells of flat bottom 96-well plates. 293T cells were seeded at 9.3×10^3 cells per well in flat bottom 96-well plates and allowed to adhere the plate for up to 24 hours. 293T cells were subsequently cultured with Mab or ADC or medium (in triplicate wells) for 72 hours. PrestoBlue® Cell viability Reagent (Thermo Fisher Scientific) was added to each and incubated for up to 1.5 hours. Fluorescence intensity from each well was detected using a FLUOstar OPTIMA microplate reader (BMG Labtech). Data points are mean±s.d. for representative experiments.

[3] = Dosimetry in humanised NSG mice; assay type: in vivo; conditions: 3 mg/kg, culled for weight loss >15%
Protocol: For dosimetry in humanised NSG mice, adult female NSG mice were sublethally irradiated with 2.5 Gy on the day before transplantation. Cryopreserved purified CD34+ cells from mobilized peripheral blood from a normal donor were thawed and 0.5×10^6 cells in PBS were injected intravenously into the tail vein. Human engraftment (human CD45+ cells) in the blood of all mice was determined by flow cytometry at 12 weeks post-transplant. Mice were assigned to treatment cohorts so that the median human engraftment in the blood for between cohorts was as similar as possible. Mice were treated with 0.3 mg/kg or 3 mg/kg Mab or ADC. Blood samples were taken after 7 days and analysed by flow cytometry. The bone marrow, blood and spleen of mice were analysed at 14 days post-treatment.

[4] = MAbs in human IgG1-AAA or rat IgG2b format, Isotype control and Isotype control PBD rat IgG2b format only
[5] = PBD ADCs in human IgG1-AAA format

Molecule	lytic activity on OCIM1 cells (human CD45+ OCIM1 cells)	inhibition of colony formation (CD34+ PBSC (CD45+); [4])	engraftment of human CD45+ cells in the bone marrow of NSG mice (human CD34+ cells)	Comment (survival / culling) ([1]; 5 mg/kg i.v.)	Mean % hCD45 levels in blood, 1 week post-treatment (human CD45+ cells; 0.3 mg/kg i.v.)	Mean % hCD45 levels in blood, 2 weeks Post-treatment (human CD45+ cells; 0.3 mg/kg i.v.)	Mean % hCD45 levels in blood, 1 week post-treatment (human CD45+ cells; 1 mg/kg i.v.)	Mean % hCD45 levels in blood, 2 weeks Post-treatment (human CD45+ cells; 1 mg/kg i.v.)	course of the levels of human CD45+ cells in blood (human CD45+ cells)	Mean % hCD45 levels in blood, Pre-treatment (human CD45+ cells; group later dosed 0.3 mg/kg)	Mean % hCD45 levels in blood, Pre-treatment (human CD45+ cells; group later dosed 1 mg/kg)	bioluminescent signal of naked antibody group relative to the corresponding ADC group [2]	internalisation (target cells)	EC50 (293T (CD45-))	inhibition of colony formation (CD34+ PBSC (CD45+); [5])	Comment (survival / culling) ([1]; 0.5 mg/kg i.v.)	mice culled due to weight loss [1]	Comment (survival / culling) [3]
YTH24.5 (antibody) heavy: QVNLLQSGAALVKPGASVKLSCKASSYTFTDYYIHWVKQSHGKTLEWIGYINPKSGFTNYNEKFRRKATLTVDKSTNTAYMDISRLTSEDSATYYCTRRTGVIPMDAWGQGASVTVSSAQTTAPSVYPLAPGCGDTTSSTVTLGCLVKGYFPEPVTVTWNSGALSSDVHTFPAVLQSGLYTLTSSVTSSTWPSQTVTCNVAHPASSTKVDKKVERRNGGIGHKCPTCPTCHKCPVPELLGGPSVFIFPPKPKDILLISQNAKVTCVVVDVSEEEPDVQFSWFVNNVEVHTAQTQPREEQYNSTFRVVSALPIQHQDWMSGKEFKCKVNNKALPSPIEKTISKPKGLVRKPQVYVMGPPTEQLTEQTVSLTCLTSGFLPNDIGVEWTSNGHIEKNYKNTEPVMDSDGSFFMYSKLNVERSRWDSRAPFVCSVVHEGLHNHHVEKSISRPPGK light: DVVMTQTPVSLSVSLGGQVSISCRSSQSFVSSDGNTYLNWYLQKPGQSPQLLIYKVSNRLSGVPDRFSGSGSGTDFTLKISRVEHDDLGVYYCGQASKIPLTFGSGTKLEIKRADAAPTVSIFPPSMEQLTSGGATVVCFVNNFYPRDISVKWKIDGSEQRDGVLDSVTDQDSKDSTYSMSSTLSLTKVEYERHNLYTCEVVHKTSSSPVVKSFNRNEC	showed lytic activity	do not inhibit colony formation	prevented engraftment	All alive at day 14	3.53%	4.72%	0.82%	3.92%	transient reduction	5.55%	5.47%	100 fold	substantially internalised via a lysosomal pathway					
YTH54.12 (antibody) heavy: EVQLVESGGGLVQPGGSMKLSCAASGFTFSDYYMAWVRQAPKKGLEWVASMSFAGSSTYYGDSVKGRFTISRDNAKTTLYLQMNSLRSEDTATYYCARMYTTDYYLYWYFDFWGPGTMVTVSSAQTTAPSVYPLAPGCGDTTSSTVTLGCLVKGYFPEPVTVTWNSGALSSDVHTFPAVLQSGLYTLTSSVTSSTWPSQTVTCNVAHPASSTKVDKKVERRNGGIGHKCPTCPTCHKCPVPELLGGPSVFIFPPKPKDILLISQNAKVTCVVVDVSEEEPDVQFSWFVNNVEVHTAQTQPREEQYNSTFRVVSALPIQHQDWMSGKEFKCKVNNKALPSPIEKTISKPKGLVRKPQVYVMGPPTEQLTEQTVSLTCLTSGFLPNDIGVEWTSNGHIEKNYKNTEPVMDSDGSFFMYSKLNVERSRWDSRAPFVCSVVHEGLHNHHVEKSISRPPGK light: DVQMTQSPSYLAASPGESVSISCKASKSISNYLAWYQQKPGEANKILIYSGSTLQSGTPSRFSGSGSGTDFSLTIRNLEPEDFAVYYCQQYDEKPLTFGSGTKLEIKRADAAPTVSIFPPSMEQLTSGGATVVCFVNNFYPRDISVKWKIDGSEQRDGVLDSVTDQDSKDSTYSMSSTLSLTKVEYERHNLYTCEVVHKTSSSPVVKSFNRNEC	no lytic activity	do not inhibit colony formation	prevented engraftment	All alive at day 14	3.19%	3.81%	1.02%	1.84%	transient reduction	5.52%	5.98%	10 fold	substantially internalised via a lysosomal pathway					
YTH24.5-hIgG1-AAA-PBD: YTH24.5 in human IgG1-AAA format conjugated to PBD drug-linker B1 (conjugate) VH: QVNLLQSGAALVKPGASVKLSCKASSYTFTDYYIHWVKQSHGKTLEWIGYINPKSGFTNYNEKFRRKATLTVDKSTNTAYMDISRLTSEDSATYYCTRRTGVIPMDAWGQGASVTVSS VL: DVVMTQTPVSLSVSLGGQVSISCRSSQSFVSSDGNTYLNWYLQKPGQSPQLLIYKVSNRLSGVPDRFSGSGSGTDFTLKISRVEHDDLGVYYCGQASKIPLTFGSGTKLEIK				2 culled at day 6 -										134 nM	dose-dependent inhibition of colony formation	All alive at day 14	4 of the 6	1 culled day 6, 1
YTH54.12-hIgG1-AAA-PBD: YTH54.12 in human IgG1-AAA format conjugated to PBD drug-linker B1 (conjugate) VH: EVQLVESGGGLVQPGGSMKLSCAASGFTFSDYYMAWVRQAPKKGLEWVASMSFAGSSTYYGDSVKGRFTISRDNAKTTLYLQMNSLRSEDTATYYCARMYTTDYYLYWYFDFWGPGTMVTVSS VL: DVQMTQSPSYLAASPGESVSISCKASKSISNYLAWYQQKPGEANKILIYSGSTLQSGTPSRFSGSGSGTDFSLTIRNLEPEDFAVYYCQQYDEKPLTFGSGTKLEIK				All alive at day 14										16.5 nM	dose-dependent inhibition of colony formation	All alive at day 14	1 of the 6	1 culled on day 9
